Results on 1 molecule are retold here after publication PMC4328881 (Cytokine, 2015).

The test deals with fibronectin (UniProt P02751 32-2477). The test can be described thus: SPR. For orientation: SPR reads the build-up and loss of mass on a sensor chip optically.

B1: 22 kDa (196 amino acids) OSM (natural protein, human, UniProt P13725 26-221, looked up)
chain: AAIGSCSKEYRVLLGQLQKQTDLMQDTSRLLDPYIRIQGLDVPKLREHCRERPGAFPSEETLRGLGRRGFLQTLNATLGCVLHRLADLEQRLPKAQDLERSGLNIEDLEKLQMARPNILGLRNNIYCMAQLLDNSDTAEPTKAGRGASQPPTPTPASDAFQRKLEGCRFLHGYHRFMHSVGRVFSKWGESPNRSRR
The term Kd denotes the free concentration of one partner at which half of the binding sites on the other are occupied at equilibrium, for simple one-to-one binding. Low values mean tighter binding, high ones weaker binding. For B1, the dissociation constant (Kd) is 2600 nM.
